We go through 96 substances from the Human Domainome abundance scans (Beltran et al. 2025).

± gives the uncertainty stated by the source.

The series in a line: abundance fitness (aPCA) (normalised: wild type 0, dead -1); higher = more abundant; growth selection in yeast, the domain comes from the species named. The following applies: Homo sapiens.
Take “Scaffold attachment factor B2 K65P, Q14151”: the abundance fitness was -0.054 ± 0.18.

In turn, “Scaffold attachment factor B2 K65Q, Q14151” came in with an abundance fitness of -0.309 ± 0.28.

On to “Scaffold attachment factor B2 K65R, Q14151”, for which the abundance fitness is -0.136 ± 0.099.

“Scaffold attachment factor B2 K65T, Q14151” showed an abundance fitness of 0.044 ± 0.17.

For “Scaffold attachment factor B2 K65V, Q14151”, the abundance fitness is -0.111 ± 0.086.

“Scaffold attachment factor B2 K65W, Q14151” returned an abundance fitness of -0.269 ± 0.12.

On to “Scaffold attachment factor B2 K65Y, Q14151”, for which the abundance fitness was -0.35 ± 0.16.

“Scaffold attachment factor B2 L30A, Q14151” displayed an abundance fitness of -0.28 ± 0.099.

Substance “Scaffold attachment factor B2 L30C, Q14151” displayed an abundance fitness of -0.708 ± 0.094.

“Scaffold attachment factor B2 L30D, Q14151” had an abundance fitness of -0.086 ± 0.15.

“Scaffold attachment factor B2 L30E, Q14151” came in with an abundance fitness of -0.232 ± 0.094.

Substance “Scaffold attachment factor B2 L30F, Q14151” had an abundance fitness of -0.3 ± 0.12.

“Scaffold attachment factor B2 L30G, Q14151” yielded an abundance fitness of -0.281 ± 0.084.

Take “Scaffold attachment factor B2 L30I, Q14151”: the abundance fitness is 0.038 ± 0.14.

In turn, “Scaffold attachment factor B2 L30K, Q14151” gave an abundance fitness of -0.461 ± 0.12.

“Scaffold attachment factor B2 L30M, Q14151”: the abundance fitness is -0.036 ± 0.12.

In turn, “Scaffold attachment factor B2 L30P, Q14151” registered an abundance fitness of -0.451 ± 0.14.

Substance “Scaffold attachment factor B2 L30Q, Q14151” registered an abundance fitness of -0.284 ± 0.14.

For the substance “Scaffold attachment factor B2 L30R, Q14151”, the abundance fitness was -0.272 ± 0.072.

For “Scaffold attachment factor B2 L30S, Q14151”, the abundance fitness is -0.233 ± 0.095.

Regarding “Scaffold attachment factor B2 L30T, Q14151”, the abundance fitness was -0.345 ± 0.14.

In the case of “Scaffold attachment factor B2 L30W, Q14151”, the abundance fitness is -0.771 ± 0.076.

In the case of “Scaffold attachment factor B2 L30Y, Q14151”, the abundance fitness was -0.086 ± 0.12.

Substance “Scaffold attachment factor B2 L33C, Q14151” showed an abundance fitness of -0.758 ± 0.12.

Turning to “Scaffold attachment factor B2 L33D, Q14151”, the abundance fitness was -0.307 ± 0.12.

On to “Scaffold attachment factor B2 L33E, Q14151”, for which the abundance fitness was -0.072 ± 0.093.

Turning to “Scaffold attachment factor B2 L33F, Q14151”, the abundance fitness was -0.106 ± 0.23.

Consider “Scaffold attachment factor B2 L33G, Q14151”, for which the abundance fitness is -0.237 ± 0.076.

On to “Scaffold attachment factor B2 L33H, Q14151”, for which the abundance fitness is -0.46 ± 0.25.

Regarding “Scaffold attachment factor B2 L33K, Q14151”, the abundance fitness is -0.319 ± 0.11.

Turning to “Scaffold attachment factor B2 L33M, Q14151”, the abundance fitness turned out to be 0.182 ± 0.11.

The substance “Scaffold attachment factor B2 L33N, Q14151” returned an abundance fitness of -0.301 ± 0.3.

On to “Scaffold attachment factor B2 L33Q, Q14151”, for which the abundance fitness was -0.24 ± 0.096.

“Scaffold attachment factor B2 L33R, Q14151” yielded an abundance fitness of -0.331 ± 0.075.

“Scaffold attachment factor B2 L33S, Q14151” had an abundance fitness of -0.138 ± 0.097.

“Scaffold attachment factor B2 L33T, Q14151” had an abundance fitness of -0.268 ± 0.1.

The substance “Scaffold attachment factor B2 L33V, Q14151” yielded an abundance fitness of -0.204 ± 0.072.

“Scaffold attachment factor B2 L33W, Q14151” returned an abundance fitness of -0.103 ± 0.096.

Turning to “Scaffold attachment factor B2 L33Y, Q14151”, the abundance fitness is -0.33 ± 0.32.

The substance “Scaffold attachment factor B2 L38A, Q14151” had an abundance fitness of -0.316 ± 0.077.

“Scaffold attachment factor B2 L38C, Q14151” had an abundance fitness of -0.532 ± 0.1.

Regarding “Scaffold attachment factor B2 L38D, Q14151”, the abundance fitness is -0.746 ± 0.11.

“Scaffold attachment factor B2 L38F, Q14151”: the abundance fitness is -0.455 ± 0.2.

“Scaffold attachment factor B2 L38G, Q14151”: the abundance fitness is -0.664 ± 0.07.

Consider “Scaffold attachment factor B2 L38H, Q14151”, for which the abundance fitness was -0.578 ± 0.13.

The substance “Scaffold attachment factor B2 L38I, Q14151” gave an abundance fitness of -0.141 ± 0.13.

As for “Scaffold attachment factor B2 L38K, Q14151”, the abundance fitness was -0.694 ± 0.12.

In turn, “Scaffold attachment factor B2 L38M, Q14151” returned an abundance fitness of -0.139 ± 0.12.

For “Scaffold attachment factor B2 L38N, Q14151”, the abundance fitness is -0.509 ± 0.17.

“Scaffold attachment factor B2 L38P, Q14151”: the abundance fitness was -0.637 ± 0.1.

As for “Scaffold attachment factor B2 L38R, Q14151”, the abundance fitness was -0.787 ± 0.076.

Consider “Scaffold attachment factor B2 L38S, Q14151”, for which the abundance fitness was -0.506 ± 0.094.

As to “Scaffold attachment factor B2 L38T, Q14151”, the abundance fitness was -0.544 ± 0.099.

Turning to “Scaffold attachment factor B2 L38V, Q14151”, the abundance fitness is -0.863 ± 0.076.

The substance “Scaffold attachment factor B2 L38W, Q14151” registered an abundance fitness of -0.791 ± 0.092.

Substance “Scaffold attachment factor B2 L38Y, Q14151” gave an abundance fitness of -0.612 ± 0.15.

In the case of “Scaffold attachment factor B2 L42A, Q14151”, the abundance fitness is -0.325 ± 0.085.

With “Scaffold attachment factor B2 L42C, Q14151”, the abundance fitness was -0.181 ± 0.11.

Turning to “Scaffold attachment factor B2 L42E, Q14151”, the abundance fitness was -0.381 ± 0.084.

As for “Scaffold attachment factor B2 L42F, Q14151”, the abundance fitness was -0.994 ± 0.16.

“Scaffold attachment factor B2 L42G, Q14151” came in with an abundance fitness of -0.439 ± 0.07.

In turn, “Scaffold attachment factor B2 L42M, Q14151” gave an abundance fitness of -0.505 ± 0.16.

Take “Scaffold attachment factor B2 L42N, Q14151”: the abundance fitness is -0.606 ± 0.12.

The substance “Scaffold attachment factor B2 L42P, Q14151” had an abundance fitness of -0.358 ± 0.12.

“Scaffold attachment factor B2 L42Q, Q14151” returned an abundance fitness of -0.827 ± 0.29.

As for “Scaffold attachment factor B2 L42R, Q14151”, the abundance fitness was -0.668 ± 0.077.

For “Scaffold attachment factor B2 L42S, Q14151”, the abundance fitness is -0.697 ± 0.089.

Substance “Scaffold attachment factor B2 L42T, Q14151” had an abundance fitness of -0.44 ± 0.12.

In the case of “Scaffold attachment factor B2 L42W, Q14151”, the abundance fitness is -1.1 ± 0.083.

As for “Scaffold attachment factor B2 L47A, Q14151”, the abundance fitness is -0.393 ± 0.079.

The substance “Scaffold attachment factor B2 L47C, Q14151” displayed an abundance fitness of -0.339 ± 0.096.

As to “Scaffold attachment factor B2 L47D, Q14151”, the abundance fitness was -0.491 ± 0.11.

In turn, “Scaffold attachment factor B2 L47E, Q14151” displayed an abundance fitness of -0.394 ± 0.098.

Substance “Scaffold attachment factor B2 L47G, Q14151” showed an abundance fitness of -0.616 ± 0.068.

On to “Scaffold attachment factor B2 L47H, Q14151”, for which the abundance fitness was -0.789 ± 0.25.

Substance “Scaffold attachment factor B2 L47I, Q14151” returned an abundance fitness of -0.534 ± 0.19.

“Scaffold attachment factor B2 L47K, Q14151” came in with an abundance fitness of -0.246 ± 0.11.

Turning to “Scaffold attachment factor B2 L47M, Q14151”, the abundance fitness is -0.265 ± 0.13.

With “Scaffold attachment factor B2 L47N, Q14151”, the abundance fitness was -0.877 ± 0.23.

“Scaffold attachment factor B2 L47P, Q14151” yielded an abundance fitness of -0.194 ± 0.45.

The substance “Scaffold attachment factor B2 L47Q, Q14151” returned an abundance fitness of -0.287 ± 0.12.

Substance “Scaffold attachment factor B2 L47R, Q14151” returned an abundance fitness of -0.524 ± 0.076.

On to “Scaffold attachment factor B2 L47S, Q14151”, for which the abundance fitness was -0.632 ± 0.093.

“Scaffold attachment factor B2 L47T, Q14151”: the abundance fitness is -0.409 ± 0.13.

Consider “Scaffold attachment factor B2 L47V, Q14151”, for which the abundance fitness is -0.622 ± 0.083.

“Scaffold attachment factor B2 L47W, Q14151” gave an abundance fitness of -0.696 ± 0.11.

Take “Scaffold attachment factor B2 L47Y, Q14151”: the abundance fitness is -0.714 ± 0.1.

Substance “Scaffold attachment factor B2 L56A, Q14151” gave an abundance fitness of -0.374 ± 0.091.

“Scaffold attachment factor B2 L56D, Q14151” showed an abundance fitness of -0.349 ± 0.13.

On to “Scaffold attachment factor B2 L56F, Q14151”, for which the abundance fitness was -0.816 ± 0.12.

“Scaffold attachment factor B2 L56G, Q14151” gave an abundance fitness of -0.285 ± 0.079.

Consider “Scaffold attachment factor B2 L56H, Q14151”, for which the abundance fitness is -0.296 ± 0.094.

As to “Scaffold attachment factor B2 L56K, Q14151”, the abundance fitness is -0.524 ± 0.096.

For the substance “Scaffold attachment factor B2 L56M, Q14151”, the abundance fitness was -0.179 ± 0.099.

“Scaffold attachment factor B2 L56N, Q14151” returned an abundance fitness of -1.2 ± 0.43.

The substance “Scaffold attachment factor B2 L56P, Q14151” gave an abundance fitness of -0.319 ± 0.13.
